How the values were obtained:
Assay in all cases: cell-based or functional assay
[1] = target: HIV-1 Env of pseudovirus MGRM-Chronic-B-010 (HIV-1)
[2] = target: HIV-1 Env of pseudovirus MGRM-Chronic-B-011 (HIV-1)
[3] = target: HIV-1 Env of pseudovirus MGRM-AE-008 (clade CRF01_AE) (HIV-1)
[4] = target: HIV-1 Env of isolate MGRM-D-020 (clade D pseudovirus) (HIV-1)
[5] = target: HIV-1 94UG114 envelope glycoprotein (Env) on pseudovirus (HIV-1 (isolate 94UG114, clade D))
[6] = target: HIV-1 Env of pseudovirus MGRM-AG-001 (clade CRF_AG) (HIV-1)
[7] = target: HIV-1 Env of pseudovirus MGRM-F1-023 (HIV-1)
[8] = target: HIV-1 JRCSF envelope glycoprotein (Env) on pseudovirus (HIV-1) (UniProt P20871)
[9] = target: HIV-1 Env of pseudovirus MGRM-AE-003 (clade CRF01_AE) (HIV-1)
[10] = target: HIV-1 Env of pseudovirus JRFL (HIV-1)
[11] = target: HIV-1 Env of isolate 92UG005 (clade D pseudovirus) (HIV-1)
[12] = target: HIV-1 Env of isolate MGRM-D-026 (clade D pseudovirus) (HIV-1)
[13] = target: HIV-1 Env of pseudovirus MGRM-AE-006 (clade CRF01_AE) (HIV-1)
[14] = target: HIV-1 Env of isolate APV_17, clade B, on pseudovirus (HIV-1)
[15] = target: HIV-1 Env of isolate 93IN905 (HIV-1)
[16] = target: HIV-1 Env of pseudovirus MGRM-F1-017 (HIV-1)
[17] = target: HIV-1 Env of isolate MGRM-D-018 (clade D pseudovirus) (HIV-1)
[18] = target: HIV-1 envelope glycoprotein (Env) of isolate MGRM-A-008, clade A (HIV-1)
[19] = target: HIV-1 Env of isolate MGRM-D-024 (clade D pseudovirus) (HIV-1)
[20] = target: HIV-1 Env of pseudovirus MGRM-F1-014 (HIV-1)
[21] = target: HIV-1 envelope glycoprotein (Env) of isolate MGRM-C-023 (HIV-1)
[22] = target: HIV-1 Env of isolate MGRM-Chronic-B-012 (subtype B) (HIV-1)
[23] = target: HIV-1 Env of isolate MGRM-AG-005 (clade AG), on pseudovirus (HIV-1)
[24] = target: HIV-1 Env of isolate JR-CSF (pseudovirus) (HIV-1) (UniProt P20871)
[25] = target: HIV-1 envelope glycoprotein (Env) of isolate MGRM-C-007 (HIV-1)
[26] = target: HIV-1 Env of isolate MGRM-D-001 (clade D), on pseudovirus (HIV-1)
[27] = target: HIV-1 Env of isolate 92WR020 (HIV-1)
[28] = target: HIV-1 Env of isolate MGRM-Chronic-B-018 (subtype B) (HIV-1)
[29] = target: HIV-1 envelope glycoprotein (Env) of isolate MGRM-C-008 (HIV-1)
[30] = target: HIV-1 Env of isolate CMU02 (clade AE), on pseudovirus (HIV-1)
[31] = target: HIV-1 Env of isolate 92UG114 (HIV-1)
[32] = target: HIV-1 Env of isolate MG RM-D-011 (HIV-1)

Chain of 1443_C16 (PG16) (TCN-116) (antibody) (VH): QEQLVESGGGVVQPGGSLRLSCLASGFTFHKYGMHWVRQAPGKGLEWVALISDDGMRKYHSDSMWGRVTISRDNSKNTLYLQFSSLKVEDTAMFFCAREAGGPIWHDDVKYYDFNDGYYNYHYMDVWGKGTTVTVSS
Chain of 1443_C16 (PG16) (TCN-116) (antibody) (VL): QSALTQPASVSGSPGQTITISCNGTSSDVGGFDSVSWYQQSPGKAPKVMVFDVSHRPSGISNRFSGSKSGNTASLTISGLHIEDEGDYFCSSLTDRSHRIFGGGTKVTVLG

Substance	IC50 (µg/ml), pseudovirus neutralization [1] [µg/mL]	IC50 (µg/ml), pseudovirus neutralization [2] [µg/mL]	IC50 [3] [µg/mL]	IC50 (µg/ml), pseudovirus neutralization [4] [µg/mL]	IC50 (µg/ml), pseudovirus neutralization [5] [µg/mL]	IC50 [6] [µg/mL]	IC50 (µg/ml), pseudovirus neutralization [7] [µg/mL]	IC50, pseudovirus neutralization [8] [µg/mL]	IC50 [9] [µg/mL]	IC50 (µg/ml), pseudovirus neutralization [10] [µg/mL]	IC50 (µg/ml), pseudovirus neutralization [11] [µg/mL]	IC50 (µg/ml), pseudovirus neutralization [12] [µg/mL]	IC50 [13] [µg/mL]	IC50 (µg/ml), pseudovirus neutralization [14] [µg/mL]	IC50 [15] [µg/mL]	IC50 (µg/ml), pseudovirus neutralization [16] [µg/mL]	IC50 (µg/ml), pseudovirus neutralization [17] [µg/mL]	IC50 (µg/ml), pseudovirus neutralization [18] [µg/mL]	IC50 (µg/ml), pseudovirus neutralization [19] [µg/mL]	IC50 (µg/ml), pseudovirus neutralization [20] [µg/mL]	further results
b12 (antibody)	> 50	2.11	> 50	> 50	> 50	11.9	> 50	0.16	> 50	0.02	> 50	1.55	> 50	> 50	21.4	> 50	1.39	> 50	5.92	> 50	IC90 (pseudovirus neutralization) [8]: 1.17 µg/mL
2F5 (antibody)	0.96	0.81	> 50	> 50	> 50	0.75	1.78	3.36	0.24	3.54	8.61	4.37	0.18	4.61	> 50	> 50	4.05	> 50	> 50	15.1	IC90 (pseudovirus neutralization) [8]: 25.3 µg/mL
4E10 (antibody)	1.69	1.07	0.94	> 50	9.72	1.12	0.44	6	0.34	18.9	7.46	2.95	0.23	10.5	1.26	4.92	3.9	7.59	3.6	7.36	IC90 (pseudovirus neutralization) [8]: 44.1 µg/mL
1495_C14 (PGC14) (antibody)	27	> 50	> 50	> 50	> 50	> 50	> 50	> 50	> 50	> 50	> 50	> 50	> 50	> 50	19	> 50	> 50	> 50	> 50	> 50	–
2G12 (antibody)	1.5	> 50	> 50	> 50	13.9	0.69	9.23	0.66	> 50	1.45	> 50	> 50	> 50	> 50	> 50	> 50	0.12	> 50	> 50	> 50	IC90 (pseudovirus neutralization) [8]: 5.38 µg/mL
5147_N06 (PGT-130) (antibody)	–	–	–	–	–	–	–	–	–	–	–	–	–	–	–	–	–	–	–	–	IC50 (µg/mL), pseudovirus neutralization [21]: 0.151 µg/mL; IC50 neutralization [22]: 0.373 µg/mL; IC50, pseudovirus neutralization [23]: 0.947 µg/mL; Polyclonal Transfectant Neutralization Index [24]: 1.24; Primary Neutralization Index (B cell culture supernatant) [24]: 19.3; IC50 (µg/mL), pseudovirus neutralization [25]: > 50 µg/mL; IC50, pseudovirus neutralization [26]: > 10 µg/mL; IC50 [27]: 0.039 µg/mL; IC50 neutralization [28]: 31.9 µg/mL; IC50 (µg/mL), pseudovirus neutralization [29]: 7.28 µg/mL; IC50, pseudovirus neutralization [30]: > 10 µg/mL; IC50 (µg/mL), pseudovirus neutralization [31]: > 50 µg/mL; IC50 (µg/mL), pseudovirus neutralization [32]: 0.019 µg/mL
1443_C16 (PG16) (TCN-116) (antibody)	0.01	> 50	3.25	16.3	> 50	0.03	> 50	< 0.0025	0.03	> 50	> 50	> 50	0.03	24.8	0.25	> 50	0.004	> 50	0.02	0.01	IC90 (pseudovirus neutralization) [8]: 0.013 µg/mL
